In patent US20060193771A1:

T1: CD30-Fc (human)
T1 sequence: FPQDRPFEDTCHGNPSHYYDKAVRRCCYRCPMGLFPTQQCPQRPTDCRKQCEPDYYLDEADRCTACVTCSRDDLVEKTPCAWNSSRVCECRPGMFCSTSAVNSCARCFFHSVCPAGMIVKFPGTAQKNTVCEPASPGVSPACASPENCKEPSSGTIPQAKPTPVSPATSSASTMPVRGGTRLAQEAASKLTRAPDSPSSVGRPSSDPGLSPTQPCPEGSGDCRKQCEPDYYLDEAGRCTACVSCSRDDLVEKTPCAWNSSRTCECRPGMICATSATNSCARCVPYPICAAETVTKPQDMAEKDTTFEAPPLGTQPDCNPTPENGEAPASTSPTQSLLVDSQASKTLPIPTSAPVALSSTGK

T2: recombinant soluble CD30 (sCD30) produced in E. coli (human)
T2 sequence: T1 sequence

B1: T7 MAb (antibody, V domains shown)
VH: QVQLQQSGAELVRPGSSVKISCKASGYTFSSYWMNWMKQRPGQGLEWIGQIYPGDDDTNYNGKFKGKATLTADKSSSTAYMQLSSLTSEDSAVYFCARRETGRGAWFTYWGQGTLVTVSA
VL: DIVLTQSPASLAVSLGQRATISCRASESLEYYGTTLMQWYQQKPGQPPKLLIYAASNVESGVPARFSGSGSGTDFSLNIHPVEEDDIAMYFCHQSRKVPSTFGGGTKLEIK
B2: HeFi-I MAb (antibody, V domains shown)
VH: EVKLVESGGGLVQPGGSLRLSCATSGFTFSDYYMNWVRQPPGKALEWLGFIRNKANGYTTEFSASVMGRFTISRDDSQSILYLQMNTLRAEDSATYYCARDPPYGNPHYYAMDYWGQGTSVTVSS
VL: DIVLTQSPASLAVSLGQRATISCRASKSVSASGYNYMHWYQQKAGQPPKLLIHLASNLESGVPARFSGSGSGTDFTLNIHPVEEEDASTYYCQHSGELPFTFGSGTKLEIK
B3: CL2(scFv)-PE38 (scFv, V domains shown)
VH: EVQLKQSGTELVKPGASVKLSCKASGYTFTSYWMHWVKQRPGQGLEWIGNINPSNGGTNYNEKFKSKATLTIDKSSSTAYMQLSSLTSEDSAVYYCARRTETAQASPFAYWGQGTLVTVSS
VL: DIVMTQSHKFMSTSVGDRVSVTCKASQNVGTNVAWYQQKPGQSPKALIYSASTRYSGVPDRFTGSGSGTDFTLTISNVQSEDLAEYFCQQYNSYPFTFGSGTKLEIK

Columns and labels:
CD30-Fc (human) = target: T1, CD30-Fc (human); experiment: affinity of the MAb; ELISA using CD30-Fc
[1] = target: T2, recombinant soluble CD30 (sCD30) produced in E. coli (human); experiment: indirect ELISA, sCD30 coated
[2] = target: human CD30, native, expressed on cells (human); experiment: FACS, L428 cells, MAb 5 µg/ml; HeFi-I is the control itself
[3] = target: human CD30, native, expressed on cells (human); experiment: competitive FACS on L540 cells, unlabeled MAb 2.5 µg/ml; competitor: biotin-T25
[4] = target: human CD30, native, expressed on cells (human); experiment: competitive FACS on L540 cells, unlabeled MAb 2.5 µg/ml; competitor: biotin-T6
[5] = target: human CD30, native, expressed on cells (human); experiment: FACS, L540 cells, MAb 5 µg/ml; HeFi-I is the control itself
[6] = target: human CD30, native, expressed on cells (human); experiment: competitive FACS on L540 cells, unlabeled MAb 2.5 µg/ml; competitor: biotin-HeFi-I
[7] = target: human CD30, native, expressed on cells (human); experiment: competitive FACS on L540 cells, unlabeled MAb 2.5 µg/ml; competitor: biotin-T14
[8] = target: T2, recombinant soluble CD30 (sCD30) produced in E. coli (human); experiment: SPR (BIAcore), sCD30 immobilized; not corrected for bivalency
[9] = target: human CD30, native, expressed on cells (human); experiment: competitive FACS on L540 cells, unlabeled MAb 2.5 µg/ml; competitor: biotin-T24
[10] = target: human CD30, native, expressed on cells (human); experiment: competitive FACS on L540 cells, unlabeled MAb 2.5 µg/ml; competitor: biotin-HRS-4
[11] = target: T2, recombinant soluble CD30 (sCD30) produced in E. coli (human); experiment: SPR (BIAcore), sCD30 immobilized
[12] = target: human CD30, native, expressed on cells (human); experiment: cell-based or functional assay

Binder	Kd (CD30-Fc (human)) [nM]	titer in ELISA [1] [mL/µg]	relative reactivity in FACS (% of control) [2]	inhibition of the binding of biotin-MAb (%) [3] [%]	inhibition of the binding of biotin-MAb (%) [4] [%]	relative reactivity in FACS (% of control) [5]	inhibition of the binding of biotin-MAb (%) [6] [%]	inhibition of the binding of biotin-MAb (%) [7] [%]	Kd [8] [nM]	koff [8] [s⁻¹]	kon [8] [M⁻¹ s⁻¹]	inhibition of the binding of biotin-MAb (%) [9] [%]	inhibition of the binding of biotin-MAb (%) [10] [%]	Kd [11] [nM]	koff [11] [s⁻¹]	kon [11] [M⁻¹ s⁻¹]	IC50, cytotoxicity on A431 cells stably transfected with CD30 [12] [ng/mL]
B1	3.5																
B2	2.4	105	100 % of control	8.4	0	100 % of control	98	0	7.8	0.00054	72000	33.4	0				
B3														56	0.0022	38000	2.5
